Measurements reported in patent US9725708B2, “Methods of modulating ubiquitin ligase activity” (Board of Supervisors of Louisiana State University and …, priority 2012, dated 2017).
Substitutions are numbered along the chain they refer to.

Columns and labels:
E6APY533A = biological target: T1, E6APY533A (Homo sapiens, UniProt Q05086, Y556A); test: E6 rescue of 125I-polyubiquitin chain formation by E6APY533A; assay type: biochemical; conditions: 20 nM E6 protein
T1 construct: made in house; host or cells: E. coli
T1 sequence (Q05086 1-872 isoform Q05086-3 Y553A): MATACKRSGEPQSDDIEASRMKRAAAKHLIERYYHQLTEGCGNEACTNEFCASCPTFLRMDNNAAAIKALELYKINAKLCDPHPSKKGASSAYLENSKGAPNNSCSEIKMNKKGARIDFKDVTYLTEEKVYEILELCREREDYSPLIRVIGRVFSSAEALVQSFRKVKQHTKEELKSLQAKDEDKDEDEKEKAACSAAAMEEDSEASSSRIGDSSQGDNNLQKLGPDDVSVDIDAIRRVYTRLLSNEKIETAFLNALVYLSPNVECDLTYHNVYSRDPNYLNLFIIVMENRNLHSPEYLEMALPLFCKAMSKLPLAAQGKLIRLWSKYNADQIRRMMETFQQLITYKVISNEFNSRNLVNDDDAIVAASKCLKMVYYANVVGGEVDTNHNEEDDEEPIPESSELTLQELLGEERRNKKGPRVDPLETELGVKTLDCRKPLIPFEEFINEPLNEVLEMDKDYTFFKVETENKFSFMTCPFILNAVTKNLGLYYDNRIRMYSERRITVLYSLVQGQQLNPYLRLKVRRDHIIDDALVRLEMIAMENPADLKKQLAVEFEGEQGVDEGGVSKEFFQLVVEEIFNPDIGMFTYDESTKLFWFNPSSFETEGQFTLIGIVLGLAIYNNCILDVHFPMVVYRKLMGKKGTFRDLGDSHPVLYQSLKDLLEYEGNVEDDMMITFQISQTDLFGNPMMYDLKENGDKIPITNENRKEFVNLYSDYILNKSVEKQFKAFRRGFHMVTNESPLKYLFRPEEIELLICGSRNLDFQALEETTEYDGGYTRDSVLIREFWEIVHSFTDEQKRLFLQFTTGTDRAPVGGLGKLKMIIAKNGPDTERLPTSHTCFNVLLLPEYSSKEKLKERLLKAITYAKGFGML
Description: (§1) E6AP-catalyzed ^125I-Ubiquitin Conjugation Assay: The E3 ligase activity of recombinant E6AP ligase was quantitated in kinetic assays under initial velocity conditions (Ronchi et al., (2013) J. Biol. Chem. 288, 10349-10360, Ronchi & Haas (2012) Methods Mol. Biol. 832: 197-218). Rates of E6AP-catalyzed ^125I-polyubiquitin chain formation were measured at 37° C. in incubations of 25-μl final volume containing 50 mM Tris-HCl (pH 7.5), 1 mM ATP, 10 mM MgCl2, 1 mM DTT, 10 mM creatine phosphate, 1 IU of creatine phosphokinase, 5 μM ^125I-ubiquitin (approximately 1.5×10^4 cpm/pmol), 50 nM human Uba1, and the indicated concentrations of UbcH7 and E6AP ligase (Siepmann et al., (2003) J. Biol. Chem. 278: 9448-9457; Baboshina et al., (2001) J. Biol. Chem. 276: 39428-39437). […]
(§2) Polyubiquitin chain formation was measured by excising lanes between the top of the resolving gel and the top of the stacker gel, representing anchored and free ^125I-polyubiquitin chains, respectively, and quantitating associated ^125I-ubiquitin by γ-counting. Absolute rates of ^125I-polyubiquitin chain formation were calculated from the associated radioactivity and the corrected specific radioactivity for ^125I-ubiquitin. Datum points represent single assay determinations, and complete data sets were evaluated by non-linear regression analysis using GraFit version 5.0 (Erithicus). […]

E6APD543A = biological target: T2, E6APD543A (Homo sapiens, UniProt Q05086, D566A); test: E6 rescue of 125I-polyubiquitin chain formation by E6APD543A; assay type: biochemical; conditions: 20 nM E6 protein
T2 construct: made in house; host or cells: E. coli
T2 sequence (Q05086 1-872 isoform Q05086-3 D563A): T1 sequence (Q05086 1-872 isoform Q05086-3 Y553A) with A553Y, D563A
Description: as §1, §2

B1: E6 protein: recombinant human papilloma virus 16 E6 protein, 158 amino acids (protein)
chain: MHQKRTAMFQDPQERPRKLPQLCTELQTTIHDIILECVYCKQQLLRREVYDFAFRDLCIVYRDGNPYAVCDKCLKFYSKISEYRHYCYSLYGTTLEQQYNKPLCDLLIRCINCQKPLCPEEKQRHLDKKQRFHNIRGRWTGRCMSCCRSSRTRRETQL
E6APY533A
  increase in rate: 8 fold
E6APD543A
  effect on rate: no enhancement in rate
